Results on three molecules are retold here after patent US20110172391A1 (published 2011).

The target in assay [1] is precursor protein MINC (Synechocystis sp. PCC6803). Kind of assay: cell-based or functional assay.
In assay [2] the target is N-precursor protein MINH (Synechocystis sp. PCC6803). Kind of assay: cell-based or functional assay.

GVFVHN [6-aa Ic peptide]: the “N-cleavage rate against the longer Ic peptide (with 10 mM or 100 mM DTT)” value in assay [1] was roughly 2 fold slower.

Regarding GVFVHNSADYKDDDDKSGCLAGDTLITLAS [synthetic peptide (ICF)], the “rate constant (kobs) of the trans-splicing reaction, pseudo-first order, 10-fold molar excess of ICF” value in assay [2] was 6.9e-05 s⁻¹.

Consider GVFVHASG [8-aa Ic peptide], for which, in assay [1], the “fold increase of the N-cleavage rate constant with 10 mM DTT against the Ic peptide alone” value was roughly 2 fold and the “fold increase of the N-cleavage rate constant with 100 mM DTT against the Ic peptide alone” value is roughly 10 fold.
